assay: soluble on expression in E. coli; label from the status in PepcDB or PDB records

Sequence | soluble on expression in E. coli
MSLAEFIYTMKKVRKAHGDKVILDDVTLSFYPGAKIGVVGPNGAGKSSVLRIMAGLDKPNNGDAFLATGATVGILQQEPPLNEDKTVRGNVEEGMGDIKIKLDRFNEVAELMATDYTDELMEEMGRLQEELDHADAWDLDAQLEQAMDALRCPPADEPVTNLSGGERRRVALCKLLLSKPDLLLLDEPTNHLDAESVQWLEQHLASYPGAILAVTHDRYFLDNVAEWILELDRGRAYPYEGNYSTYLEKKAERLAVQGRKDAKLQKRLTEELAWVRSGAKARQAKSKARLQRYEEMAAEAEKTRKLDFEEIQIPVGPRLGNVVVEVDHLDKGYDGRALIKDLSFSLPRNGIVGVIGPNGVGKTTLFKTIVGLETPDSGSVKVGETVKLSYVDQARAGIDPRKTVWEVVSDGLDYIQVGQTEVPSRAYVSAFGFKGPDQQKPAGVLSGGERNRLNLALTLKQGGNLILLDEPTNDLDVETLGSLENALLNFPGCAVVISHDRWFLDRTCTHILAWEGDDDNEAKWFWFEGNFGAYEENKVERLGVDAARPHRVTHRKLTRGEGHHHHHH | soluble
MSLAEFSADLCLFDLDGTIVSTTVAAEKAWTKLCYEYGVDPSELFKHSHGARTQEVLRRFFPKLDDTDNKGVLALEKDIAHSYLDTVSLIPGAENLLLSLDVDTETQKKLPERKWAIVTSGSPYLAFSWFETILKNVGKPKVFITGFDVKNGKPDPEGYSRARDLLRQDLQLTGKQDLKYVVFEDAPVGIKAGKAMGAITVGITSSYDKSVLFDAGADYVVCDLTQVSVVKNNENGIVIQVNNPLTRAEGHHHHHH | not soluble
MSLAEPRNGESAGADAVLTKAIEDALGNGTGSVTVDLPQAEGKAKAGDLVTLRYTMTTADGALVATTEESVAADKGRPRSVAFTARSRYRPEEIVAGGEGNLPGVAEAVIGMAPGEKKHLSLSADKAFGARDPQRVVTMATVKSLPRTVAIPAADYVKNFGALPVVGKELPVVPYFPARVIEVTEQQAKLQLLARDGERFTESFGAVETKVDGESVKIRLVPTIGAPFEFRGARGTITAAGEENFTVDFNHPLADRSVVLDLEVVSLTKGEKLAAISVPWLENHDQGLEKAKQEEKPAVLVLYADWCQWCKKLFGETAEDPRIKAVSDRFVWIRVNSDKEKAYKEQYGQDGYPLIVLLDRQGKVAKKLDGFRDAAGLREELNALLEGHHHHHH | soluble
MSLAHYKKFRLSTLAAVVGIVLAVGPENSYAEAPIQFNTRFLDVKDDASLDLSRFSRKGYIMPGSYHLQVLVNQSQIVQDNVITYSVDNNDPDNTYPCLSPELVSLLGLKPEIADKMIWINAGQCLQPDQLEGMETQTDLSQSTLTVIIPQAYLEYSDEEWDPPSRWDEGIPGVLFDYNVNSQWRHAEHDDGDEYDISGNGTVGANLGAWRLRADWQANYRHENDSEDKDNFGSSSEQNWDWNRYYAWRAIPQLRAQLTLGEGSLESDIFDGFNYVGGSLITDDQMLPPNLRGYAPDISGVARTNAKVTVTQRGRVIYESQVPAGPFRIQDINETVSGDLHVKIEEQSGQVQEYDVSTASIPFLTRPGQVRYKLAAGRPQDWDHNMEGGFFTSAEASWGIANGWSLYGGAIGEQDYQALALGLGRDLALLGAFSVDVTHSRATLPEGSAYGDGTIQGNSFRASYAKDFDDIDSRLTFAGYRFSEENYMTMDEFIDTHNDDNDRQRTGHDKEMYTLTYSQNFSAINVNAYINYTHRTYWNQPNQDSYNLTLSHYFDVGEVRGISLSVNGFRNEYDNERDDGVYVSLSIPWGNNRTLSYNGSFSDDNNSNQVGYYERIDDRNNYQINAGRADNGATLDGYYRYQASYADIDVSANYQEGDYTSGGLNIQGGATLTAKGGALHRTSVNGGSRLLVDVGDEANVPISGYSTPVYTNAFGKAVIVDVNDYYRNQVKIDITQLPEDAEAILSIAQATLTEGAIGYRRMEVLSGKKAMASIRLRDGGTPPFGAEVYNSRQQQLGIVGEDGSVYLIGINPGERLQVTWEGKTQCEATLPDPLPGDLFSGLLLPCIGDASSPEATQPEEKPLLQLHTQRRTSSTQPEALSSRYPTHEGGSHHHHHH | soluble
MSLAKFAPVQYKYIIKAEFEIDGIVDREDIIGAIFGQTEGLLGMELDLRELQKQGKLGRIEVEYKRVGNKTIGTITIPTSLKAVETSLIAAAIETVDRVGPAKARFRVKEIVDVRSSKREYIRNRAKELFVQMMSKTAPDIEELRRELEEAYYSKQLIEYGEEKLPAGPLVEKSDEIILVEGRADVVNLVKHGILNVLGMNGINIPKSVVELSKRKKVTLFIDGDRGGELVLRNMLAAGADIDYVAVAPPGREVEELTNKEILKALKSKIPLEQYIKNLRISINNDENKEKYKELLSKVFDTKKAIVFDEQFNIIDEKPLEEIDKLPSAYGIAIDKILDNETYAKIKGKYQLILALDSNVNAQERVITLKDIQEGHHHHHH | not soluble
MSLAKHIVELTDALSNKIAAGEVVERPASVVKELVENAIDAGSTVIDILVEEAGLNKITIIDNGSGIEEEDVATAFLRHATSKIKNEADLFRVHTLGFRGEALPSIASVSHLEMETSTGEAKGTTISLEGGKIIEQKSGHARKGTQIEVSQLFFNTPARLKYLKSLPTELGNITDILNRLALAHPDISFRFSHNGKPLLQTNGNGELRQVIAAIYGVSIAKKSVPVKAESLDFKISGYAVLPEVNRSNRNYISTIINGRFIKNFALVKAIQEGYHTLLPIGRFPIIVLQIEMDPIIVDVNVHPAKLEVRLSKEKELGQLISQMIKETFHKLQLIPDGEISKEGHHHHHH | soluble
MSLAKLTINDIAKKAKTSKTTVSFYLNGKFDKMSPDTKRRIEQVIEETNYSPNIMARSLKLKKSNLIGVVVADITNPFSSNIVKGIGEITRRKGYQILVGSTNLDYYNEEEYFKKMLDMGVDGFIVQPTKNFDKLYPAIKNKGKKIVVLDSVSSRYTGKWVKTNNYEIVYEAVLKLAEKGYEEFILVTEAPDKLAARMERKTGFEDAVNKINCKSFIEIINENTEVDEIAEMLKINISNNKKTVIFAINGKILQKVFKAVKMEGFDVPNHVGIIGFDKWDWTMYASPSVTTIDQPTYEEGKYAAKMLIEMIEENDDFYKSEVFDCNINWEESTDEGHHHHHH | soluble
MSLALDGKSLSGFSHVHVGSLYNAEALEKSVEEMQVETSRRGYAFAVVRPRGDRNFDAHTVSIVFAIDEGPRTYIERINIRGNTRTRDYVIRREFDISEGDAYNRSLVDRAERRLKNLDFFKTVKITTEPGSSSDRVILDVDVEDKSTGDFSVSGGYSTTQGALAEVSVSERNLLGRGLYAKASVQYGQYARGYSLSFVEPYLLDYRVALGLDFYQREQLANQYISYNIKTLGFSPRLGFGLREDLTLQLRYSIFRQEIGLPTSLRNCNNNIGGPNYNPSPAFLNSIGQFNPNNPTLGCYSDGEASLPIRQELGGQTLTSMLGYTLTYNTLDNNKNPTDGLLIDFRQDFAGVGGDVKYLKTAIDAKYYQPLVSDIVGLVHLQGGILNNVGAYAGQNGIRMLDNFQMGPNLVRGFAPNGIGPRDINFLSTMDALGGTQYWGASVELQMPFWFLPKEVGLKGAVYADAGSLWGYKGPTSNLATNEFNAPGCMPSTSRSNPGTCAGLQFDDTNVVRTSVGVGLIWQSPFGPLRFDYAVPITKGKYDRVQEFRFGGGTTEGHHHHHH | not soluble
MSLALLNVDKLSVHFGDESAPFRAVDRISYSVKQGEVVGIVGESGSGKSVSSLAIMGLIDYPGRVMAEKLEFNGQDLQRISEKERRNLVGAEVAMIFQDPMTSLNPCYTVGFQIMEAIKVHQGGNKSTRRQRAIDLLNQVGIPDPASRLDVYPHQLSGGMSQRVMIAMAIACRPKLLIADEPTTALDVTIQAQIIELLLELQQKENMALVLITHDLALVAEAAHKIIVMYAGQVVETGDAHAIFHAPRHPYTQALLRALPEFAQEGHHHHHH | not soluble
MSLANIKEIARLANVSVSTVSRVLNHHPYVSEEKRKLVHQVMKELDYTPNRTAIDLIRGKTHTVGVILPYSDHPCFDKIVNGITKAAFQHEYATTLLPTNYNPDIEIKYLELLRTKKIDGLIITSRANHWDSILAYQEYGPVIACEDTGDIDVPCAFNDRKTAYAESFRYLKSRGHENIAFTCVREADRSPSTADKAAAYKAVCGRLEDRHMLSGCNDMNDGELAAEHFYMSGRVPTAIYANSDEVAAGIHLFAKKNNWDVEIIGEGNTSISRVLGFPSLDLNLEQLGIAAFSLFLQDEPADIKIQHKFKKKAEGHHHHHH | soluble
MSLANLYLMRSRSDELNTIISTNLLKNYSKIYKNIAIYCPVIYIHRVPVLQGWLEEFNINQTVKSAYGFTFREAMEEFSKDPHNFFNVILEEYEELKRKYDFVLVNSFCEFGILDGFDLSIKLAKNLNTPIAAIINDEDKLIAQKYFDHALDGRNYVLINENFNFEEVQKLKEYDFITPHRFKYELIKQSIKNKKTVVLPESNDERILKAAEILLKSKVVDLILLGDEEKIKQDATRLSLDLSAMQIMNPLNSEYNQKFTSILYEARKSKGMSLEEAKMLVQDKTYFGTLLIHTGKADAMVSGASTTTAETIRPALQLIKTKEGISSVSGIFFMGLEDQVLAFADCAVNPSPTAEQLATSAYVSAMTAKSFGLEPRIALLSYSSGDSGKGESVDLVKEALKIAKEKYPELNIDGPMQFDCAYDPKTAAKKMPNSKIAGHANVYIFPDLNAANICYKAVQRTANALAIGPILQGLKKPVNDLSRGCLVDDIVDTVILSAIQAQEGHHHHHH | soluble
MSLAQGRQVIGLDIGTTSTIAILVRLPDTVVAVASRPTTLSSPHPGWAEEDPAQWWDNARAVLAELKTTAGESDWRPGGICVTGMLPAVVLLDDRGAVLRPSIQQSDGRCGDEVAELRAEVDSEAFLARTGNGVTQQLVTAKLRWIERHEPAVFGAIATVCGSYDYINMLLTGERVVDRNWALEGGFIDLASGTVEADLVALAHIPPSAVPPAHPTHRVLGAVTAEAAALTGLPTGLPVYGGAADHIASALAAGITRPGDVLLKFGGAGDIIVASATAKSDPRLYLDYHLVPGLYAPNGCMAATGSALNWLAKLLAPEAGEAAHAQLDALAAEVPAGADGLVCLPYFLGEKTPIHDPFASGTFTGLSLSHTRGHLWRALLEAVALAFRHHVAVLDDIGHAPQRFFASDGGTRSRVWMGIMADVLQRPVQLLANPLGSAVGAAWVAAIGGGDDLGWDDVTALVRTGEKITPDPAKAEVYDRLYRDFSALYATLHPFFHRSREGHHHHHH | soluble
MSLAQLPSELLSLQLPLRIRIGDAQAFDLGPDPQVTMVIRDPTLLTEITHPSLDALGKAYVEKRLDIEGPISQVIGIGDALSEALGDPDGEASPVRESHDKATDAEAIHYHYDLSNDFYRLWLDPEMVYSCAYFETGREDLATAQLAKLRHLCRKLRLQPGEKLLDVGCGWGGLARLAAREFGVEVTGITLSKEQLALGQERVRAEGLEDRVTLKLLDYRDLPRDGRFDKVVSVGMFEHVGHANLGLYFQQLYDAVRPGGLVMNHGITSLYTDGRPVGKGAGDFIDRYVFPHGELPHLSLAVARMSEAGLEVVDVESLRLHYARTLDFWSANLEAKLKEAARLVPEETLRIWRLYLAGCAYGFKRGWINLHQILANRPHEDGSHELPWSRRDLYAEGHHHHHH | soluble
MSLARCERLRGAALRDVLGRAQGVLFDCDGVLWNGERAVPGAPELLERLARAGKAALFVSNNSRRARPELALRFARLGFGGLRAEQLFSSALCAARLLRQRLPGPPDAPGAVFVLGGEGLRAELRAAGLRLAGDPSAGDGAAPRVRAVLVGYDEHFSFAKLREACAHLRDPECLLVATDRDPWHPLSDGSRTPGTGSLAAAVETASGRQALVVGKPSPYMFECITENFSIDPARTLMVGDRLETDILFGHRCGMTTVLTLTGVSRLEEAQAYLAAGQHDLVPHYYVESIADLTEGLEDEGHHHHHH | soluble
MSLARRHELSIALILQDKFTIAAFSGFIDALRLAADDAAKSRQIRVAWKVFAQHRSPVMASCGLRVATEDGLPVPEDYDYIAICGGNSFADAAPAPQLAQLIQRAHRARVGLLGICTGSFAIARAGLIGDRRFCIHWNVAEPFKALFPRAQISVDRIFIDEGDVITCAGSTAAIDLALYLVMRHCGQDRAQQVMRHMMLSQMRPATMPQAHFYQLPPGDSHPRLRRALHFMEQQLDHPPSVGAIARYCGVSVRQLERIFLQALGQTPNAAFRQMRLNYGRYLLSAGTLPVTEIAHIAGFSDAAHFSREFRRAFHETPSAHRRARSHGPDEGHHHHHH | soluble

Source: the DeepSol protein solubility set
